2 molecules from PMC8219681, “Inhibition of MRN activity by a telomere protein motif” (Nature Communications, 2021) can be followed below.

Assay [1] addresses T1, Rad50S (S. cerevisiae Rad50-K81I, FLAG-tagged at the C terminus) (S. cerevisiae, UniProt P12753 1-1312, K81I).
T1 construct: Rad50, Saccharomyces cerevisiae, K81I
T1 sequence (looked up): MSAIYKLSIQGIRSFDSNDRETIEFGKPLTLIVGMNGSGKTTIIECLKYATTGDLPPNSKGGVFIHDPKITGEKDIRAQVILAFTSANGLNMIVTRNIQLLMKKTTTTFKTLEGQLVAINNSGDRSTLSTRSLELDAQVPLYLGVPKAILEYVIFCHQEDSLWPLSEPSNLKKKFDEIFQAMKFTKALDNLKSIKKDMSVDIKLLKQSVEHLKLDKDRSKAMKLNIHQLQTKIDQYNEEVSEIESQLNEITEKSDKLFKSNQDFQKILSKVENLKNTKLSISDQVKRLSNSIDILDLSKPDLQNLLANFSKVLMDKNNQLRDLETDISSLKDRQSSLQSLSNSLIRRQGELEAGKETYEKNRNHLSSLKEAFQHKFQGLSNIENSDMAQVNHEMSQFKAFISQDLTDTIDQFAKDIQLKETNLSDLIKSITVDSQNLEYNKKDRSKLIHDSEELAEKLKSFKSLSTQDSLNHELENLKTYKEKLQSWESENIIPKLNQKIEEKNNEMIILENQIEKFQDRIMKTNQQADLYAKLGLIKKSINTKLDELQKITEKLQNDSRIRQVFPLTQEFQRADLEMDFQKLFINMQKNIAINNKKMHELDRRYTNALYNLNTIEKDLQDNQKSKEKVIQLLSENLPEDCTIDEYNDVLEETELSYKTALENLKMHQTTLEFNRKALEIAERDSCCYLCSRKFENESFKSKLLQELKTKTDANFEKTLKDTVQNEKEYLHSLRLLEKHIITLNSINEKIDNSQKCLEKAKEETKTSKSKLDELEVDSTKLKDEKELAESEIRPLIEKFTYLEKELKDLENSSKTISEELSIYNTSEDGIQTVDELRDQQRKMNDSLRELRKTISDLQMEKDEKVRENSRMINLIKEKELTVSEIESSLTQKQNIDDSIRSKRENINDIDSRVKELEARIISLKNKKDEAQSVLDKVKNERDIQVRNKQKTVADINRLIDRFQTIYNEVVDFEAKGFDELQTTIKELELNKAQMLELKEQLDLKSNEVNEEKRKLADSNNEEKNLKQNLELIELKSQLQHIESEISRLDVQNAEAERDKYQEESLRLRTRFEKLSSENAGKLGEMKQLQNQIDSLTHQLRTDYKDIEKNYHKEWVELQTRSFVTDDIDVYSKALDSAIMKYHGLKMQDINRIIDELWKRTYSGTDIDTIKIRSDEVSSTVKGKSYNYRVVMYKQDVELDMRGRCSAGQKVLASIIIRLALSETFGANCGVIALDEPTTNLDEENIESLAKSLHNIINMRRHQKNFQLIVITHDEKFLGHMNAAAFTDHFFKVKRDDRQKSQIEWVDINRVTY
Kind of assay: pull-down; MBP-Rif2 or MBP-Rif2-min immobilised on amylose resin, washed with 1 M NaCl buffer then 150 mM NaCl; 750 ng Rad50 or Rad50-K81I added for 1 h at 4 °C in wash buffer with 150 mM NaCl; Western blot with anti-Rad50. The conditions noted are these: both partners purified. Background: A western blot detects proteins with antibodies after separation by electrophoresis.

Assay [2] has as its target T2, Xrs2 (S. cerevisiae, FLAG-tagged at the C terminus) (S. cerevisiae, UniProt P33301 1-854).
T2 construct: Xrs2, Saccharomyces cerevisiae; also called Xrs2-FLAG; not shown: FLAG, C-terminal, kept
T2 sequence (looked up): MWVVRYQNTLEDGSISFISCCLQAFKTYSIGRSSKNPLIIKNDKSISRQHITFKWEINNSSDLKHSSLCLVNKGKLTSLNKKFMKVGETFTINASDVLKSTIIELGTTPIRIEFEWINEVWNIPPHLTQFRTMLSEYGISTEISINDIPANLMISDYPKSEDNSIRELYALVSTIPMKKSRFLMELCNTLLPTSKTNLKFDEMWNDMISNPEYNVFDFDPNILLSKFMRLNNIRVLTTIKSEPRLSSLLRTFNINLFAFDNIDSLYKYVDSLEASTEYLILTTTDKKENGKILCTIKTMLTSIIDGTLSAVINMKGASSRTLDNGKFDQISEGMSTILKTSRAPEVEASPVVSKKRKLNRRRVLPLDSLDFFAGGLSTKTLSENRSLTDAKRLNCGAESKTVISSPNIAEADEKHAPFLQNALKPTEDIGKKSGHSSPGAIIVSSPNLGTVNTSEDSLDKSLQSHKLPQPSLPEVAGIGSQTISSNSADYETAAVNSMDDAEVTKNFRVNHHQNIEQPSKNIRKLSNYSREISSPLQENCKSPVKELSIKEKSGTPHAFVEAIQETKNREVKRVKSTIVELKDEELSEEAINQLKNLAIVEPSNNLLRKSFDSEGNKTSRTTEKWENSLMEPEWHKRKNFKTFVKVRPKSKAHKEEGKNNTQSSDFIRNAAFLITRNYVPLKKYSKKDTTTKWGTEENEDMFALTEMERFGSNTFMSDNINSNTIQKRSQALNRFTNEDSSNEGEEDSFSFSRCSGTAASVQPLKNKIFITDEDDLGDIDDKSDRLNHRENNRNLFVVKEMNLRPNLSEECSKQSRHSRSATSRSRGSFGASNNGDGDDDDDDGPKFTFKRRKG
Kind of assay: pull-down; MBP-Rif2 or MBP-Rif2-min (~5 ug, from Sf9 lysate) immobilised on amylose resin and washed; 1 ug Mre11, 500 ng Rad50 or 1 ug Xrs2 added for 1 h in 50 mM Tris-HCl pH 7.5, 200 mM NaCl, 0.2% NP40, 2 mM EDTA; eluted with 20 mM maltose; Western blot. Particulars: both partners purified.

Where a chain is given by its changes, count along the chain named. Numbers in names are those of the source.

B1: MBP-Rif2 (S. cerevisiae Rif2, wild type) (natural protein, UniProt Q06208 1-395, looked up)
chain: MEHVDSDFAPIRRSKKVVDSDKIVKAISDDLEQKNFTVLRKLNLVPIKKSVSSPKVCKPSPVKERVDHVFYQKFKSMALQELGTNYLSISYVPSLSKFLSKNLRSMKNCIVFFDKVEHIHQYAGIDRAVSETLSLVDINVVIIEMNDYLMKEGIQSSKSKECIESMGQASYSGQLDFEASEKPSNHTSDLMMMVMRKINNDESIDHIVYFKFEQLDKLSTSTIIEPSKLTEFINVLSVLEKSNNIAFKVLIYSNNVSISSLLSTSLKKKLNTKYTVFEMPILTCAQEQEYLKKMIKFTFDSGSKLLQSYNSLVTCQLNNKESNLAIFFEFLKVFPHPFTYLFNAYTEIIVQSRTFDELLDKIRNRLTIKNYPHSAYNFKKNQRLPLKLTRKVHDR
notes: Rif2, Saccharomyces cerevisiae, full length, expressed from the vector pFB-MBP-Rif2-his; MBP was cleaved with PreScission protease only after elution from the resin; N-terminal place of MBP is read from the construct's name MBP-Rif2-his; also called ScRif2; not shown: MBP, N-terminal, kept
Turning to B1, the binding result in assay [1] and in assay [2] was “binds” each time.

B2: MBP-Rif2-min (S. cerevisiae Rif2 F8E P10N) (natural protein, UniProt Q06208 1-395, looked up)
chain: B1 chain with F8E, P10N
notes: Rif2, Saccharomyces cerevisiae, full length, F8E P10N, expressed from the vector pFB-MBP-Rif2-min-his; MBP was cleaved with PreScission protease only after elution from the resin; N-terminal place of MBP is read from the construct's name; also called mutant Rif2; not shown: MBP, N-terminal, kept
On to B2, for which the binding result in assay [1] and in assay [2] was “binds” each time.
